US20060057665A1, “Galectin-14 therapeutic molecule and uses thereof” (The University of Melbourne, priority 2001, published 2006)

B1: GST-galectin-14: Recombinant galectin-14 expressed in E. coli BL-21 as a GST fusion protein (pGEX-6P-2) (protein)
chain: MQSESGHEGDEELAFRDTQPPYINLPIPFTGRIEGGLQDGHKVTVMGRVLSTDENRFQVDFQMGISDTNNVAFHFNPRFEGSGYVVCNTMQLGNWGPEEKKMQMPFQKGSLFEICFKVDSSSFKVTVNGSIFLDYAHRLPFEQVNAISIGGCVHVSYISFQI
modifications: left off: a dimerising Fc or GST
B2: galectin-14: Ovine proto-type galectin, amino acid sequence <400>2; recombinant form cleaved from GST fusion, with 5 additional N-terminal amino acids (protein)
chain: B1 chain

Key:
[1] = test system: rabbit erythrocytes; experiment: Hemagglutination assay on trypsin-treated, glutaraldehyde fixed rabbit erythrocytes; assay type: cell-based; conditions: for stability of agglutination activity upon storage: even in the presence of reducing agents
Protocol: Trypsin-treated, glutaraldehyde fixed rabbit erythrocytes were prepared and tested in an agglutination assay according to the method of Nowak et al. (Nowak et al. (1976) supra). Agglutination assays were performed in 96-well V-shaped microtiter plates with serial 2-fold dilutions of samples in 25 μl of DES (0.15 M NaCl, 2 mM EDTA, 2 mM dithiothreitol), 50 μl of 0.5% (w/v) BSA in 0.15 M NaCl and 25 μl of a 4% suspension of rabbit erythrocytes. The plates were shaken vigorously for 30 s, and agglutination was read after the plates had stood at room temperature for 1 h. Agglutinated erythrocytes formed a “mat” on the bottom of the well. For assessment of the inhibitory effects of saccharides, lactose, galactose, and N-acetyl-glucosamine were serially diluted in 25 μl of 0.15 M NaCl prior to the addition of recombinant protein in DES, 25 μl of 1% (w/v) BSA in 0.15 M NaCl, and 4% erythrocytes in PBS. The minimum concentration of GST-galectin-14 that gave mat formation (0.28 μM) was used in the saccharide inhibition assay. For assessment of the effects of antibody on GST-galectin-14 hemagglutination, ascites and supernatants from monoclonal antibodies and polyclonal rabbit sera all raised to recombinant galectin-14 were serially diluted in 25 μl of 0.15 M NaCl prior to the addition of recombinant protein in DES, 25 μl of 1% (w/v) BSA in 0.15 M NaCl, and 4% erythrocytes in PBS. A different batch of GST-galectin-14, which produced mat formation at a minimum concentration of 0.059 μM, was used at 0.059 μM and 0.042 μM to measure both inhibition and potentiation of agglutination by antibodies.

[2] = molecular target: T1, laminin from Engelbreth-Holm-Swarm murine sarcoma (Mus musculus, UniProt P02468+P02469+P19137); experiment: Solid-phase laminin binding assay; conditions: serial dilutions; detected with anti-GST HRP antibody, absorbance 450 nm
T1 construct: laminin from Engelbreth-Holm-Swarm murine sarcoma (Sigma); purchased Sigma; host or cells: Engelbreth-Holm-Swarm murine sarcoma (tissue-derived)
Protocol: FIG. 17 is an image of the saturation binding of GST-galectin-14 fusion protein to immobilised laminin. Laminin binding of GST-galectin-14 fusion protein was assayed using a solid-phase binding assay in a 96-well microtitre plate. Serial dilutions of GST-galectin-14 (▪) and GST (▴) were added to microtitre wells containing laminin. 0.3 M Lactose was added to GST-galectin-14 to inhibit binding (◯). The level of bound protein was monitored by the binding of rabbit anti-GST HRP antibody developed with TMB substrate and detected by a change in absorbance at 450 nm.
Laminin binding activity was measured according to the method of Mazurek et al. with some modification. Briefly, the wells of a 96-well microtitre plate were coated with laminin from Engelbreth-Holm-Swarm murine sarcoma (Sigma) at 1 μg/100 μl of carbonate coating buffer (15 mM Na2CO3, 35 mM NaHCO3, pH 9.6) per well overnight at 4° C. Non-specific binding sites were blocked with 200 μl of 0.5% Tween 20 in PBS for 1 h. Plates were washed 3 times in 0.05% Tween 20 PBS and incubated with 50 μl serial dilutions of GST-galectin-14 or GST alone, diluted in 0.5% Tween 20 PBS, for 1.5 h at 37° C. Control wells contained 0.3 M lactose. […] The reaction was terminated with 100 μl 2 M sulphuric acid and the colour change monitored using a dual wavelength mode plate reader (Bio-tek instruments) at 450 nm, ref 690 nm.

[3] = SDS-PAGE and Western blot analysis of recombinant galectin-14 after storage; assay type: physicochemical; conditions: storage at high concentrations; reducing conditions
Protocol: FIG. 10 is an image of SDS-PAGE and Western blot analysis of recombinant galectin-14 and endogenous proteins. […] The arrow points to the position of monomeric galectin-14. All samples were run under reducing conditions. […] Membranes were incubated with mAb supernatant for 2 h at room temperature, followed by incubation with secondary antibody, horseradish peroxidase-conjugated rabbit anti-mouse Ig (Dako, Carpinteria, Calif.), for at least 1 h at room temperature. Signals were detected using 1.5 mM 3,3′-diaminobenzidine tetrahydrochloride (DAB; Sigma), or ECL (Amersham Pharmacia Biotech).

Molecule | maximum concentration which did not induce agglutination ([1]; batch used in the antibody potentiation assay) | minimum concentration that gave mat formation (agglutination) ([1]; batch used in the saccharide inhibition assay) | minimum concentration that produced mat formation (agglutination) ([1]; different batch, used in the antibody assays) | stability of agglutination activity upon storage [1] | binding to immobilised laminin [2] | self-aggregation after storage [3] | minimum concentration exhibiting agglutination activity on rabbit erythrocytes ([1]; fresh cleaved and purified recombinant protein)
B1 | 0.042 µM | 0.28 µM | 0.059 µM | did not deteriorate upon storage | bound to laminin in a dose dependent manner | – | –
B2 | – | – | – | rapidly lost upon storage | – | often self-aggregates into oligomers | 0.16 µM
